Results from US7943337B2, “Method for screening a protease” (Asahi Kasei Pharma Corporation, priority 2003, dated 2011).

B1: thermolysin: thermolysin (manufactured by Wako Pure Chemical Industries, Ltd.) (protein, UniProt P00800 233-548, looked up)
Thermolysin: ITGTSTVGVGRGVLGDQKNINTTYSTYYYLQDNTRGNGIFTYDAKYRTTLPGSLWADADNQFFASYDAPAVDAHYYAGVTYDYYKNVHNRLSYDGNNAAIRSSVHYSQGYNNAFWNGSQMVYGDGDGQTFIPLSGGIDVVAHELTHAVTDYTAGLIYQNESGAINEAISDIFGTLVEFYANKNPDWEIGEDVYTPGISGDSLRSMSDPAKYGDPDHYSKRYTGTQDNGGVHINSGIINKAAYLISQGGTHYGVSVVGIGRDKLGKIFYRALTQYLTPTSNFSQLRAAAVQSATDLYGSTSQEVASVKQAFDAVGVK
B2: carboxypeptidase Y: carboxypeptidase Y (manufactured by Oriental Yeast Co., Ltd.) (protein, UniProt P00729 112-532, looked up)
Carboxypeptidase Y: KIKDPKILGIDPNVTQYTGYLDVEDEDKHFFFWTFESRNDPAKDPVILWLNGGPGCSSLTGLFFELGPSSIGPDLKPIGNPYSWNSNATVIFLDQPVNVGFSYSGSSGVSNTVAAGKDVYNFLELFFDQFPEYVNKGQDFHIAGESYAGHYIPVFASEILSHKDRNFNLTSVLIGNGLTDPLTQYNYYEPMACGEGGEPSVLPSEECSAMEDSLERCLGLIESCYDSQSVWSCVPATIYCNNAQLAPYQRTGRNVYDIRKDCEGGNLCYPTLQDIDDYLNQDYVKEAVGAEVDHYESCNFDINRNFLFAGDWMKPYHTAVTDLLNQDLPILVYAGDKDFICNWLGNKAWTDVLPWKYDEEFASQKVRNWTASITDEVAGEVKSYKHFTYLRVFNGGHMVPFDVPENALSMVNEWIHGGFSL
B3: proteinase K: Proteinase K (manufactured by Wako Pure Chemical Industries, Ltd.) (protein, UniProt P06873 106-384, looked up)
Proteinase K: AAQTNAPWGLARISSTSPGTSTYYYDESAGQGSCVYVIDTGIEASHPEFEGRAQMVKTYYYSSRDGNGHGTHCAGTVGSRTYGVAKKTQLFGVKVLDDNGSGQYSTIIAGMDFVASDKNNRNCPKGVVASLSLGGGYSSSVNSAAARLQSSGVMVAVAAGNNNADARNYSPASEPSVCTVGASDRYDRRSSFSNYGSVLDIFGPGTSILSTWIGGSTRSISGTSMATPHVAGLAAYLMTLGKTTAASACRYIADTANKGDLSNIPFGTVNLLAYNNYQA
B4: carboxypeptidase B: carboxypeptidase B (manufactured by Sigma-Aldrich Corp.) (protein, UniProt P09955 111-416, looked up)
Carboxypeptidase B: TTGHSYEKYNNWETIEAWTKQVTSENPDLISRTAIGTTFLGNNIYLLKVGKPGPNKPAIFMDCGFHAREWISHAFCQWFVREAVLTYGYESHMTEFLNKLDFYVLPVLNIDGYIYTWTKNRMWRKTRSTNAGTTCIGTDPNRNFDAGWCTTGASTDPCDETYCGSAAESEKETKALADFIRNNLSSIKAYLTIHSYSQMILYPYSYDYKLPENNAELNNLAKAAVKELATLYGTKYTYGPGATTIYPAAGGSDDWAYDQGIKYSFTFELRDKGRYGFILPESQIQATCEETMLAIKYVTNYVLGHL
B5: carboxypeptidase A: carboxypeptidase A (manufactured by Wako Pure Chemical Industries, Ltd.) (protein, UniProt P00730 111-419, looked up)
Carboxypeptidase A1: ARSTNTFNYATYHTLDEIYDFMDLLVAEHPQLVSKLQIGRSYEGRPIYVLKFSTGGSNRPAIWIDLGIHSREWITQATGVWFAKKFTEDYGQDPSFTAILDSMDIFLEIVTNPDGFAFTHSQNRLWRKTRSVTSSSLCVGVDANRNWDAGFGKAGASSSPCSETYHGKYANSEVEVKSIVDFVKDHGNFKAFLSIHSYSQLLLYPYGYTTQSIPDKTELNQVAKSAVEALKSLYGTSYKYGSIITTIYQASGGSIDWSYNQGIKYSFTFELRDTGRYGFLLPASQIIPTAQETWLGVLTIMEHTLNNLY
B6: protease type VIII: protease (type VIII Subtilisin Carlsberg: manufactured by Sigma-Aldrich Corp.) (protein, UniProt P00780 106-379, looked up)
Subtilisin Carlsberg: AQTVPYGIPLIKADKVQAQGFKGANVKVAVLDTGIQASHPDLNVVGGASFVAGEAYNTDGNGHGTHVAGTVAALDNTTGVLGVAPSVSLYAVKVLNSSGSGSYSGIVSGIEWATTNGMDVINMSLGGASGSTAMKQAVDNAYAKGVVVVAAAGNSGSSGNTNTIGYPAKYDSVIAVGAVDSNSNRASFSSVGAELEVMAPGAGVYSTYPTNTYATLNGTSMASPHVAGAAALILSKHPNLSASQVRNRLSSTATYLGSSFYYGKGLINVEAAAQ

Assay: Screening of protease for hemoglobin A1c determination (pH 7.5)
Type: biochemical
Conditions: pH 7.5, 37° C. 60 minutes; 550 nm, reference 595 nm; FOD923 developing solution
Experimental: (§1) A screening method is shown in which a protease that cleaves a glycated peptide from N-terminal-glycated pentapeptide of a hemoglobin β-chain without substantially cleaving a glycated amino acid or glycated peptide from N-terminal-glycated pentapeptide of a hemoglobin α-chain. Each 10 μl of a sample for screening was placed in 3 wells of a 96-well plate, respectively. Then, the first well was supplemented with 50 μl of an α-solution, the second well was supplemented with 50 μl of a β-solution, and the third well was supplemented with 50 μl of a control solution. After the plate was incubated at 37° C. for 60 minutes, 50 μl of distilled water and 50 μl of a developing solution were added, and the whole was left at room temperature for 30 minutes. Then, the absorbance at a measuring wavelength of 550 nm and a reference wavelength of 595 nm were determined using a Microplate Reader (model 550, manufactured by Bio-Rad), to select a sample having a difference in the absorbance between the β-solution-supplemented well and the control solution-supplemented well larger than a difference in the absorbance between the α-solution-supplemented well and the control solution-supplemented well. Thus the protease of object was screened. The samples to be used include: carboxypeptidase B (manufactured by Sigma-Aldrich Corp.); carboxypeptidase W (manufactured by Wako Pure Chemical Industries, Ltd.); carboxypeptidase Y (manufactured by Oriental Yeast Co., Ltd.); protease (type XXVII nagase: manufactured by Sigma-Aldrich Corp.); protease (type VIII Subtilisin Carlsberg: manufactured by Sigma-Aldrich Corp.); protease (type XXIV Bacterial: manufactured by Sigma-Aldrich Corp.); Proteinase K (manufactured by Wako Pure Chemical Industries, Ltd.); neutral proteinase (manufactured by Toyobo Co., Ltd.); carboxypeptidase A (manufactured by Wako Pure Chemical Industries, Ltd.); thermolysin (manufactured by Wako Pure Chemical Industries, Ltd.); and distilled water. To confirm a degree of color development caused by a developing solution, 10 μl of 1 mM FVH (manufactured by Peptide Institute Inc.) and 1 mM FVL (manufactured by Peptide Institute Inc.) were placed in a well severally, followed by adding 50 μl of the control solution. The whole was incubated at 37° C. for 60 minutes. Then, 50 μl of distilled water and 50 μl of the developing solution were added and the whole was left at room temperature for 30 minutes, followed by the determination in a similar manner as described above.
(§2) 0.2 mM α-Glycated pentapeptide (manufactured by Peptide Institute Inc.)
(§3) 0.09% 4-Aminoantipyrine (manufactured by Wako Pure Chemical Industries, Ltd.)
(§4) 0.06% TODB (manufactured by Dojindo Laboratories)
(§5) 15 U/ml Peroxidase (manufactured by Sigma-Aldrich Corp.)
(§6) Various bacteria were cultured with shaking in Difco Lactobacilli MRS Broth (manufactured by Becton, Dickinson and Company), a MM medium (2.5% mannose, 2.5% beer yeast extract, pH7.0), and a YPG medium (2% glucose, 1% polypeptone, 2% yeast extract, 0.1% potassium dihydrogen phosphate, 0.05% magnesium sulfate heptahydrate, pH 7.0) at a temperature of from 28 to 30° C. for 1 to 7 days. Then, cells were removed by centrifugation from the culture solutions to obtain culture supernatants. A sample was prepared by diluting the obtained culture supernatants 10-fold with a 10 mM potassium phosphate buffer (pH7.5), and the determination was performed in a similar manner as Example 1.

| Molecule | α-Solution (absorbance, RAW DATA) |
| --- | --- |
| B1 | 0.053 |
| B2 | 0.240 |
| B3 | 0.031 |
| B4 | 0.036 |
| B5 | 0.022 |
| B6 | 0.023 |

Assay: Screening of protease (pH 7.5), control solution without substrate
Type: biochemical
Conditions: pH 7.5, no substrate; 550 nm, reference 595 nm
Experimental: as §1, §3, §4, §5, §6

| Molecule | control solution (absorbance, RAW DATA) |
| --- | --- |
| B1 | 0.055 |
| B2 | 0.031 |
| B3 | 0.017 |
| B4 | 0.028 |
| B5 | 0.018 |
| B6 | 0.012 |

Assay: Screening of protease for hemoglobin A1c determination (pH 7.5)
Type: biochemical
Conditions: pH 7.5
Experimental: as §1
(§7) 0.2 mM β-Glycated pentapeptide (manufactured by Peptide Institute Inc.)
as §3, §4, §5, §6

| Molecule | specificity for β-chain over α-chain N-terminal glycated pentapeptide |
| --- | --- |
| B1 | cleave a glycated peptide from an N-terminal glycated pentapeptide of a hemoglobin β-chain without substantially cleaving |
| B4 | cleave a glycated peptide from an N-terminal glycated pentapeptide of a hemoglobin β-chain without substantially cleaving |

Same assay, conditions: pH 7.5, 37° C. 60 minutes; 550 nm, reference 595 nm; FOD923 developing solution

| Molecule | β-Solution (absorbance, RAW DATA) |
| --- | --- |
| B1 | 0.249 |
| B2 | 0.209 |
| B3 | 0.077 |
| B4 | 0.127 |
| B5 | 0.145 |
| B6 | 0.020 |

Assay: Screening of protease (pH 3.5), control solution without substrate
Type: biochemical
Conditions: pH 3.5, no substrate; 550 nm, reference 595 nm
Experimental: (§8) A screening method is shown in which a protease that cleaves a glycated peptide from N-terminal-glycated pentapeptide of a hemoglobin β-chain without substantially cleaving a glycated amino acid or glycated peptide from N-terminal-glycated pentapeptide of a hemoglobin α-chain. Each 10 μl of a sample for screening was placed in 3 wells of a 96-well plate, respectively. Then, the first well was supplemented with 50 μl of an α-solution, the second well was supplemented with 50 μl of a β-solution, and the third well was supplemented with 50 μl of a control solution. After the plate was incubated at 37° C. for 60 minutes, 50 μl of pH-regulating solution and 50 μl of a developing solution were added, and the whole was left at room temperature for 30 minutes. Then, the absorbance at a measuring wavelength of 550 nm and a reference wavelength of 595 nm were determined using a Microplate Reader (model 550, manufactured by Bio-Rad), to select a sample having a difference in the absorbance between the β-solution-supplemented well and the control solution-supplemented well larger than a difference in the absorbance between the α-solution-supplemented well and the control solution-supplemented well. Thus the protease of object was screened. The samples to be used include: carboxypeptidase B (manufactured by Sigma-Aldrich Corp.); carboxypeptidase W (manufactured by Wako Pure Chemical Industries, Ltd.); carboxypeptidase Y (manufactured by Oriental Yeast Co., Ltd.); protease (type XXVII nagase: manufactured by Sigma-Aldrich Corp.); protease (type VIII Subtilisin Carlsberg: manufactured by Sigma-Aldrich Corp.); protease (type XXIV Bacterial: manufactured by Sigma-Aldrich Corp.); Proteinase K (manufactured by Wako Pure Chemical Industries, Ltd.); neutral proteinase (manufactured by Toyobo Co., Ltd.); and distilled water. To confirm a degree of color development caused by a developing solution, 10 μl of 1 mM FVH (manufactured by Peptide Institute Inc.) and 1 mM FVL (manufactured by Peptide Institute Inc.) were placed in a well severally, followed by adding 50 μl of the control solution. The whole was incubated at 37° C. for 60 minutes. Then, 50 μl of a pH-regulating solution and 50 μl of the developing solution were added and the whole was left at room temperature for 30 minutes, followed by the determination in a similar manner as described above.
(§9) 50 mM Acetate-sodium acetate (pH3.5)
(§10) 0.09% 4-aminoantipyrine (manufactured by Wako Pure Chemical Industries, Ltd.)
as §4, §5

| Molecule | control solution (absorbance, RAW DATA) |
| --- | --- |
| B2 | 0.034 |
| B3 | 0.023 |
| B4 | 0.060 |
| B6 | 0.016 |

Assay: Screening of protease for hemoglobin A1c determination (pH 3.5)
Type: biochemical
Conditions: pH 3.5
Experimental: as §8, §9, §7, §10, §4, §5

| Molecule | specificity for β-chain over α-chain N-terminal glycated pentapeptide |
| --- | --- |
| B4 | cleaves a glycated peptide from an N-terminal glycated pentapeptide of a hemoglobin β-chain without substantially cleaving |

Same assay, conditions: pH 3.5, 37° C. 60 minutes; 550 nm, reference 595 nm; FOD923 developing solution

| Molecule | β-Solution (absorbance, RAW DATA) |
| --- | --- |
| B2 | 0.206 |
| B3 | 0.026 |
| B4 | 0.147 |
| B6 | 0.018 |

Assay: as above
Type: biochemical
Conditions: pH 3.5, 37° C. 60 minutes; 550 nm, reference 595 nm; FOD923 developing solution
Experimental: as §8, §9, §2, §10, §4, §5

| Molecule | α-Solution (absorbance, RAW DATA) |
| --- | --- |
| B2 | 0.195 |
| B3 | 0.024 |
| B4 | 0.063 |
| B6 | 0.019 |
